Entries after “also recorded” stand apart in the source; their conditions may differ. Positions of bridges follow the written chain, without caps; N, C: chain ends. Non-standard residues stand in square brackets, D forms with d. Residues, ends and D or L forms follow the SMILES beside them.
How the values were obtained:
[1] = system: B16/F1 melanoma-bearing C57 mouse; test: SPECT/CT melanoma imaging; assay type: in vivo; details: flank B16/F1 melanoma, 2 h post-injection, about 7.4 MBq, one mouse
B16/F1 melanoma cells = test: Cellular internalization in B16/F1 melanoma cells; assay type: cell-based, murine
in vivo = test: in vivo; set-up: species or system C57 mice; details: C57, mouse, iv, total radioactivity; for tissue uptake dose at 2 h: percent injected dose
[2] = 0.037 MBq, Kidneys (renal) uptake
[3] = 0.037 MBq, Uptake ratio Tumor/Lung

With `CC(C)[C@H](NC(=O)[C@@H]1CCCN1C(=O)[C@H](CCCNC(=N)N)NC(=O)[C@H](CS)NC(=O)[C@H](Cc1c[nH]c2ccccc12)NC(=O)[C@H](CCCNC(=N)N)NC(=O)[C@@H](Cc1ccccc1)NC(=O)[C@H](Cc1c[nH]cn1)NC(=O)[C@H](CCC(=O)O)NC(=O)[C@H](CS)NC(=O)[C@H](CS)NC(=O)[C@H](CCCNC(=N)N)NC(=O)[C@@H]1CC(=O)N[C@@H](CCCNC(=N)N)C(=O)N[C@@H](C)C(=O)N[C@@H](CC(=O)O)C(=O)N[C@H](Cc2ccc(O)cc2)C(=O)N1)C(N)=O` [^99mTc-RAD-Arg-(Arg^11)CCMSH, metal not drawn] (RAD[dY]DRCCEH[dF]RWCRPV-NH2; lactam N-5; C-terminus assumed) the “melanoma imaging by SPECT/CT” value [1] was “visualized clearly; also recorded: clearly imaged”, the activity internalized (B16/F1 melanoma cells; 20 min post incubation) was “Approximately 77.81 ± 4.46%” and the activity internalized (B16/F1 melanoma cells; after 2 h incubation) was 81.26 ± 4.81%. It also gave a tissue uptake at 0.5 h (in vivo; 0.037 MBq, Blood uptake) of 3.43 ± 0.37 %ID/g, a tissue uptake at 2 h (in vivo; 0.037 MBq, Blood uptake) of 0.59 ± 0.17 %ID/g and a tissue uptake at 4 h (in vivo; 0.037 MBq, Blood uptake) of 0.1 ± 0.06 %ID/g. For the same compound, the tissue uptake at 24 h (in vivo; 0.037 MBq, Blood uptake) was 0.04 ± 0.01 %ID/g, the tissue uptake at 0.5 h (in vivo; 0.037 MBq, Bone uptake) was 1.97 ± 0.22 %ID/g and the tissue uptake at 2 h (in vivo; 0.037 MBq, Bone uptake) was 0.64 ± 0.25 %ID/g. It also gave a tissue uptake at 4 h (in vivo; 0.037 MBq, Bone uptake) of 0.34 ± 0.13 %ID/g, a tissue uptake at 24 h (in vivo; 0.037 MBq, Bone uptake) of 0.14 ± 0.04 %ID/g and a tissue uptake at 0.5 h (in vivo; 0.037 MBq, Brain uptake) of 0.16 ± 0.04 %ID/g. For the same compound, the tissue uptake at 2 h (in vivo; 0.037 MBq, Brain uptake) was 0.04 ± 0.02 %ID/g, the tissue uptake at 4 h (in vivo; 0.037 MBq, Brain uptake) was 0.02 ± 0.02 %ID/g and the tissue uptake at 24 h (in vivo; 0.037 MBq, Brain uptake) was 0.02 %ID/g. For the same compound, the tissue uptake at 0.5 h (in vivo; 0.037 MBq, Heart uptake) was 1.71 ± 0.58 %ID/g, the tissue uptake at 2 h (in vivo; 0.037 MBq, Heart uptake) was 0.5 ± 0.14 %ID/g and the tissue uptake at 4 h (in vivo; 0.037 MBq, Heart uptake) was 0.21 ± 0.03 %ID/g. For the same compound, the tissue uptake at 24 h (in vivo; 0.037 MBq, Heart uptake) was 0.1 ± 0.02 %ID/g, the tissue uptake at 0.5 h (in vivo; [2]) was 41.2 ± 4.48 %ID/g and the tissue uptake at 2 h (in vivo; [2]) was 35.6 ± 9.61 %ID/g. The tissue uptake at 4 h (in vivo; [2]) was 26.5 ± 0.62 %ID/g, the tissue uptake at 24 h (in vivo; [2]) was 12 ± 2.29 %ID/g and the tissue uptake at 0.5 h (in vivo; 0.037 MBq, Liver uptake) was 3.07 ± 0.08 %ID/g. The tissue uptake at 2 h (in vivo; 0.037 MBq, Liver uptake) was 1.88 ± 0.35 %ID/g, the tissue uptake at 4 h (in vivo; 0.037 MBq, Liver uptake) was 1.47 ± 0.11 %ID/g and the tissue uptake at 24 h (in vivo; 0.037 MBq, Liver uptake) was 1.18 ± 0.28 %ID/g. It also gave a tissue uptake at 0.5 h (in vivo; 0.037 MBq, Lung uptake) of 5.42 ± 0.7 %ID/g, a tissue uptake at 2 h (in vivo; 0.037 MBq, Lung uptake) of 1.15 ± 0.22 %ID/g and a tissue uptake at 4 h (in vivo; 0.037 MBq, Lung uptake) of 0.4 ± 0.16 %ID/g. It also gave a tissue uptake at 24 h (in vivo; 0.037 MBq, Lung uptake) of 0.16 ± 0.03 %ID/g, a tissue uptake at 0.5 h (in vivo; 0.037 MBq, Muscle uptake) of 0.8 ± 0.46 %ID/g and a tissue uptake at 2 h (in vivo; 0.037 MBq, Muscle uptake) of 0.2 ± 0.15 %ID/g. For the same compound, the tissue uptake at 4 h (in vivo; 0.037 MBq, Muscle uptake) was 0.15 ± 0.1 %ID/g, the tissue uptake at 24 h (in vivo; 0.037 MBq, Muscle uptake) was 0.03 ± 0.02 %ID/g and the tissue uptake at 0.5 h (in vivo; 0.037 MBq, Pancreas uptake) was 1.06 ± 0.33 %ID/g. It also gave a tissue uptake at 2 h (in vivo; 0.037 MBq, Pancreas uptake) of 0.2 ± 0.11 %ID/g, a tissue uptake at 4 h (in vivo; 0.037 MBq, Pancreas uptake) of 0.1 ± 0.05 %ID/g and a tissue uptake at 24 h (in vivo; 0.037 MBq, Pancreas uptake) of 0.1 ± 0.05 %ID/g. The tissue uptake at 0.5 h (in vivo; 0.037 MBq, Skin uptake) was 5.43 ± 0.41 %ID/g, the tissue uptake at 2 h (in vivo; 0.037 MBq, Skin uptake) was 1.1 ± 0.39 %ID/g and the tissue uptake at 4 h (in vivo; 0.037 MBq, Skin uptake) was 0.53 ± 0.09 %ID/g. The tissue uptake at 24 h (in vivo; 0.037 MBq, Skin uptake) was 0.24 ± 0.1 %ID/g, the tissue uptake at 0.5 h (in vivo; 0.037 MBq, Spleen uptake) was 2.12 ± 0.57 %ID/g and the tissue uptake at 2 h (in vivo; 0.037 MBq, Spleen uptake) was 0.61 ± 0.31 %ID/g. It also gave a tissue uptake at 4 h (in vivo; 0.037 MBq, Spleen uptake) of 0.25 ± 0.12 %ID/g, a tissue uptake at 24 h (in vivo; 0.037 MBq, Spleen uptake) of 0.41 ± 0.14 %ID/g and a tissue uptake at 0.5 h (in vivo; 0.037 MBq, Stomach uptake) of 3.13 ± 0.62 %ID/g. The tissue uptake at 2 h (in vivo; 0.037 MBq, Stomach uptake) was 1.63 ± 0.43 %ID/g, the tissue uptake at 4 h (in vivo; 0.037 MBq, Stomach uptake) was 1.41 ± 0.74 %ID/g and the tissue uptake at 24 h (in vivo; 0.037 MBq, Stomach uptake) was 0.28 ± 0.09 %ID/g. It also gave a tissue uptake at 0.5 h (in vivo; 0.037 MBq, Tumor uptake) of 8.46 ± 3.7 %ID/g, a tissue uptake at 2 h (in vivo; 0.037 MBq, Tumor uptake) of 18 ± 4.96 %ID/g and a tissue uptake at 4 h (in vivo; 0.037 MBq, Tumor uptake) of 14.1 ± 2.9 %ID/g. For the same compound, the tissue uptake at 24 h (in vivo; 0.037 MBq, Tumor uptake) was 10.2 ± 2.66 %ID/g, the tissue to tissue ratio at 0.5 h (in vivo; [3]) was 1.56 and the tissue to tissue ratio at 2 h (in vivo; [3]) was 15.6. For the same compound, the tissue to tissue ratio at 4 h (in vivo; [3]) was 35.2, the tissue to tissue ratio at 24 h (in vivo; [3]) was 63.5 and the tissue uptake dose at 2 h (in vivo; Bladder) was 77.8 ± 2.34 %ID. For the same compound, the tissue uptake dose at 2 h (in vivo; Intestines) was 2.5 ± 0.16 %ID, the tissue to tissue ratio at 2 h (in vivo; Uptake ratio Tumor/Blood) was 2.41 and the tissue to tissue ratio at 2 h (in vivo; Uptake ratio Tumor/Kidneys) was 0.09. It also gave a tissue to tissue ratio at 2 h (in vivo; Uptake ratio Tumor/Liver) of 1.12, a tissue to tissue ratio at 2 h (in vivo; Uptake ratio Tumor/Lung) of 1.73 and a tissue to tissue ratio at 2 h (in vivo; Uptake ratio Tumor/Muscle) of 10.4.

Reference: publication PMC3889140 (Bioorganic & medicinal chemistry letters, 2013)
